Results from KR20200059381A.

What was measured:
[1] = molecular target: 불활화 FMDV 혈청형 O (Foot-and-mouth disease virus serotype O)
[2] = molecular target: 구제역 바이러스 혈청형 O 배양액(cal1~cal4) (Foot-and-mouth disease virus serotype O); test: sandwich ELISA, cal1, 1E58 coat 1 ug/ml, 1E58-HRP 0.4 ug/ml, 450 nm
[3] = molecular target: 구제역 바이러스 혈청형 O 배양액(cal1~cal4) (Foot-and-mouth disease virus serotype O); test: sandwich ELISA, cal1, 1E58 coat 1 ug/ml, 1E58-HRP 0.6 ug/ml, 450 nm
[4] = molecular target: 구제역 바이러스 혈청형 O 배양액(cal1~cal4) (Foot-and-mouth disease virus serotype O); test: sandwich ELISA, cal1, 1E58 coat 1 ug/ml, 1E58-HRP 0.8 ug/ml, 450 nm
[5] = molecular target: 구제역 바이러스 혈청형 O 배양액(cal1~cal4) (Foot-and-mouth disease virus serotype O); test: sandwich ELISA, cal1, 1E58 coat 2 ug/ml, 1E58-HRP 0.2 ug/ml, 450 nm
[6] = molecular target: 구제역 바이러스 혈청형 O 배양액(cal1~cal4) (Foot-and-mouth disease virus serotype O); test: sandwich ELISA, cal1, 1E58 coat 2 ug/ml, 1E58-HRP 0.4 ug/ml, 450 nm
[7] = molecular target: 구제역 바이러스 혈청형 O 배양액(cal1~cal4) (Foot-and-mouth disease virus serotype O); test: sandwich ELISA, cal1, 1E58 coat 2 ug/ml, 1E58-HRP 0.6 ug/ml, 450 nm
[8] = molecular target: 구제역 바이러스 혈청형 O 배양액(cal1~cal4) (Foot-and-mouth disease virus serotype O); test: sandwich ELISA, cal1, 1E58 coat 2 ug/ml, 1E58-HRP 0.8 ug/ml, 450 nm
[9] = molecular target: 구제역 바이러스 혈청형 O 배양액(cal1~cal4) (Foot-and-mouth disease virus serotype O); test: sandwich ELISA, cal1, 1E58 coat 4 ug/ml, 1E58-HRP 0.2 ug/ml, 450 nm
[10] = molecular target: 구제역 바이러스 혈청형 O 배양액(cal1~cal4) (Foot-and-mouth disease virus serotype O); test: sandwich ELISA, cal1, 1E58 coat 4 ug/ml, 1E58-HRP 0.4 ug/ml, 450 nm
[11] = molecular target: 구제역 바이러스 혈청형 O 배양액(cal1~cal4) (Foot-and-mouth disease virus serotype O); test: sandwich ELISA, cal1, 1E58 coat 4 ug/ml, 1E58-HRP 0.8 ug/ml, 450 nm
[12] = molecular target: 구제역 바이러스 혈청형 O 배양액(cal1~cal4) (Foot-and-mouth disease virus serotype O); test: sandwich ELISA, cal1, 1E58 coat 8 ug/ml, 1E58-HRP 0.4 ug/ml, 450 nm
[13] = molecular target: 구제역 바이러스 혈청형 O 배양액(cal1~cal4) (Foot-and-mouth disease virus serotype O); test: sandwich ELISA, cal1, 1E58 coat 8 ug/ml, 1E58-HRP 0.6 ug/ml, 450 nm
[14] = molecular target: 구제역 바이러스 혈청형 O 배양액(cal1~cal4) (Foot-and-mouth disease virus serotype O); test: sandwich ELISA, cal2, 1E58 coat 1 ug/ml, 1E58-HRP 0.6 ug/ml, 450 nm
[15] = molecular target: 구제역 바이러스 혈청형 O 배양액(cal1~cal4) (Foot-and-mouth disease virus serotype O); test: sandwich ELISA, cal2, 1E58 coat 1 ug/ml, 1E58-HRP 0.8 ug/ml, 450 nm
[16] = molecular target: 구제역 바이러스 혈청형 O 배양액(cal1~cal4) (Foot-and-mouth disease virus serotype O); test: sandwich ELISA, cal2, 1E58 coat 2 ug/ml, 1E58-HRP 0.8 ug/ml, 450 nm
[17] = molecular target: 구제역 바이러스 혈청형 O 배양액(cal1~cal4) (Foot-and-mouth disease virus serotype O); test: sandwich ELISA, cal2, 1E58 coat 4 ug/ml, 1E58-HRP 0.6 ug/ml, 450 nm
[18] = molecular target: 구제역 바이러스 혈청형 O 배양액(cal1~cal4) (Foot-and-mouth disease virus serotype O); test: sandwich ELISA, cal2, 1E58 coat 8 ug/ml, 1E58-HRP 0.4 ug/ml, 450 nm
[19] = molecular target: 구제역 바이러스 혈청형 O 배양액(cal1~cal4) (Foot-and-mouth disease virus serotype O); test: sandwich ELISA, cal2, 1E58 coat 8 ug/ml, 1E58-HRP 0.6 ug/ml, 450 nm
[20] = molecular target: 구제역 바이러스 혈청형 O 배양액(cal1~cal4) (Foot-and-mouth disease virus serotype O); test: sandwich ELISA, cal2, 1E58 coat 8 ug/ml, 1E58-HRP 0.8 ug/ml, 450 nm
[21] = molecular target: 구제역 바이러스 혈청형 O 배양액(cal1~cal4) (Foot-and-mouth disease virus serotype O); test: sandwich ELISA, cal3, 1E58 coat 4 ug/ml, 1E58-HRP 0.8 ug/ml, 450 nm
[22] = molecular target: 구제역 바이러스 혈청형 O 배양액(cal1~cal4) (Foot-and-mouth disease virus serotype O); test: sandwich ELISA, cal3, 1E58 coat 8 ug/ml, 1E58-HRP 0.2 ug/ml, 450 nm
[23] = molecular target: 구제역 바이러스 혈청형 O 배양액(cal1~cal4) (Foot-and-mouth disease virus serotype O); test: sandwich ELISA, cal3, 1E58 coat 8 ug/ml, 1E58-HRP 0.6 ug/ml, 450 nm
[24] = molecular target: 구제역 바이러스 혈청형 O 배양액(cal1~cal4) (Foot-and-mouth disease virus serotype O); test: sandwich ELISA, cal3, 1E58 coat 8 ug/ml, 1E58-HRP 0.8 ug/ml, 450 nm
[25] = molecular target: 구제역 바이러스 혈청형 O 배양액(cal1~cal4) (Foot-and-mouth disease virus serotype O); test: sandwich ELISA, cal4, 1E58 coat 1 ug/ml, 1E58-HRP 0.2 ug/ml, 450 nm
[26] = molecular target: 구제역 바이러스 혈청형 O 배양액(cal1~cal4) (Foot-and-mouth disease virus serotype O); test: sandwich ELISA, cal4, 1E58 coat 1 ug/ml, 1E58-HRP 0.6 ug/ml, 450 nm
[27] = molecular target: 구제역 바이러스 혈청형 O 배양액(cal1~cal4) (Foot-and-mouth disease virus serotype O); test: sandwich ELISA, cal4, 1E58 coat 4 ug/ml, 1E58-HRP 0.4 ug/ml, 450 nm
[28] = molecular target: 구제역 바이러스 혈청형 O 배양액(cal1~cal4) (Foot-and-mouth disease virus serotype O); test: sandwich ELISA, cal4, 1E58 coat 8 ug/ml, 1E58-HRP 0.8 ug/ml, 450 nm

B1: 단클론항체 1E58 (antibody, V domains shown)
VH: EFQLQQSRPELAKPGASVKISCKTSGHTFTTYTMHWVKQSHVKSLEWIGCFNPNNGGATYNQKFKGKATLTMDKSSNTAYVEVRSLTSDDSAVYYCAYGNYVNFDYWGQGTTLTVSS
VL: DIVLTQSPASLAVSLGQRATISYRASKSVSTSGYSYMHWNQQKPGQPPRLLIYLVSNLESGVPARFSGSGSGTDFTLNIHPVEEEDAATYYCQHIRELTRSEGGPSWKN
Work on B1 yielded an O.D (450nm) [1] of 1.09 O.D, an O.D [2] of 2.43 O.D and an O.D [3] of 2.98 O.D. The O.D [4] was 3.21 O.D, the O.D [5] was 3.12 O.D and the O.D [6] was 3.87 O.D. The O.D [7] was 3.68 O.D, the O.D [8] was 4 O.D and the O.D [9] was 3.47 O.D. The O.D [10] was 3.15 O.D, the O.D [11] was 4 O.D and the O.D [12] was 3.18 O.D. For the same binder, the O.D [13] was 3.27 O.D, the O.D [14] was 1.55 O.D and the O.D [15] was 1.97 O.D. The O.D [16] was 3.67 O.D, the O.D [17] was 3.47 O.D and the O.D [18] was 1.85 O.D. For the same binder, the O.D [19] was 1.84 O.D, the O.D [20] was 4 O.D and the O.D [21] was 2.65 O.D. It also gave an O.D [22] of 0.62 O.D, an O.D [23] of 1.13 O.D and an O.D [24] of 1.31 O.D. For the same binder, the O.D [25] was 0.5 O.D, the O.D [26] was 0.74 O.D and the O.D [27] was 0.88 O.D. The O.D [28] was 0.59 O.D.
